Starred links: 1 amine or outer side, 2 acyl side, 3 side chain; linkers in the order of their positions; H or OH if unused. Non-standard residues stand in square brackets, D forms with d. 3Pal4Ph4CO2H = 4-[5-[(2S)-2-amino-2-carboxy-ethyl]-2-pyridyl]benzoic acid, O=C([C@H](Cc1ccc(-c2ccc(C(=O)[*:3])cc2)nc1)N[*:1])[*:2]; TyrEtNAc = (2S)-3-[4-(2-acetamidoethoxy)phenyl]-2-amino-propanoic acid, CC(=O)NCCOc1ccc(C[C@H](N[*:1])C(=O)[*:2])cc1; dPro(4R-(4-pyridylmethyl)) = O=C(O)[C@H]1C[C@@H](Cc2ccncc2)CN1; Trp(βS-Me,4-F) = C[C@@H](c1c[nH]c2cccc(F)c12)[C@H](N)C(=O)O; 3Aminoazetidine3carboxyl = O=C(C1(N[*:1])CN([*:3])C1)[*:2]; Bip(4'-COOH) = N[C@@H](Cc1ccc(-c2ccc(C(=O)O)cc2)cc1)C(=O)O; Ala(1-bicyclo(1.1.1)pentyl) = N[C@@H](CC12CC(C1)C2)C(=O)O; dPro(4R-Bzl(4-F)) = O=C(O)[C@H]1C[C@@H](Cc2ccc(F)cc2)CN1; Ala(morpholin-4-yl) = N[C@@H](CN1CCOCC1)C(=O)O; Ala(pyrimidin-5-yl) = N[C@@H](Cc1cncnc1)C(=O)O; Phe(4-COOH) = N[C@@H](Cc1ccc(C(=O)O)cc1)C(=O)O; Pro(cis-4-F) = O=C(O)[C@@H]1C[C@H](F)CN1; 4Pal = N[C@@H](Cc1ccncc1)C(=O)O; d(αMeS) = C[C@@](N)(CO)C(=O)O; αMeS = C[C@](N)(CO)C(=O)O; Dab = NCC[C@H](N)C(=O)O; Aib = CC(C)(N)C(=O)O

B1: SEQ ID NO: 26 (peptide)
peptide: cyclo([3Pal4Ph4CO2H][4Pal][Phe(4-COOH)]G[Pro(cis-4-F)][Trp(βS-Me,4-F)][Aib]EW[Aib][Ala(pyrimidin-5-yl)]Q[Dab]G[dPro(4R-Bzl(4-F))])
SMILES: C[C@@H](c1c[nH]c2cccc(F)c12)[C@@H]1NC(=O)[C@@H]2C[C@H](F)CN2C(=O)CNC(=O)[C@H](Cc2ccc(C(=O)O)cc2)NC(=O)[C@H](Cc2ccncc2)NC(=O)[C@H](Cc2ccc(-c3ccc(C(=O)O)cc3)nc2)NC(=O)[C@H]2C[C@@H](Cc3ccc(F)cc3)CN2C(=O)CNC(=O)[C@H](CCN)NC(=O)[C@H](CCC(N)=O)NC(=O)[C@H](Cc2cncnc2)NC(=O)C(C)(C)NC(=O)[C@H](Cc2c[nH]c3ccccc23)NC(=O)[C@H](CCC(=O)O)NC(=O)C(C)(C)NC1=O
B2: SEQ ID NO: 19 (peptide)
peptide: cyclo([Bip(4'-COOH)][4Pal][Phe(4-COOH)]G[Pro(cis-4-F)][Trp(βS-Me,4-F)][d(αMeS)]EW[Aib][Ala(pyrimidin-5-yl)]Q[Dab]G[dPro(4R-Bzl(4-F))])
SMILES: C[C@@H](c1c[nH]c2cccc(F)c12)[C@@H]1NC(=O)[C@@H]2C[C@H](F)CN2C(=O)CNC(=O)[C@H](Cc2ccc(C(=O)O)cc2)NC(=O)[C@H](Cc2ccncc2)NC(=O)[C@H](Cc2ccc(-c3ccc(C(=O)O)cc3)cc2)NC(=O)[C@H]2C[C@@H](Cc3ccc(F)cc3)CN2C(=O)CNC(=O)[C@H](CCN)NC(=O)[C@H](CCC(N)=O)NC(=O)[C@H](Cc2cncnc2)NC(=O)C(C)(C)NC(=O)[C@H](Cc2c[nH]c3ccccc23)NC(=O)[C@H](CCC(=O)O)NC(=O)[C@@](C)(CO)NC1=O
B3: SEQ ID NO: 24 (peptide)
peptide: cyclo([Bip(4'-COOH)][4Pal][Phe(4-COOH)]G[Pro(cis-4-F)][Trp(βS-Me,4-F)][Aib]EW[Aib][Ala(pyrimidin-5-yl)]Q[Ala(morpholin-4-yl)]G[dPro(4R-Bzl(4-F))])
SMILES: C[C@@H](c1c[nH]c2cccc(F)c12)[C@@H]1NC(=O)[C@@H]2C[C@H](F)CN2C(=O)CNC(=O)[C@H](Cc2ccc(C(=O)O)cc2)NC(=O)[C@H](Cc2ccncc2)NC(=O)[C@H](Cc2ccc(-c3ccc(C(=O)O)cc3)cc2)NC(=O)[C@H]2C[C@@H](Cc3ccc(F)cc3)CN2C(=O)CNC(=O)[C@H](CN2CCOCC2)NC(=O)[C@H](CCC(N)=O)NC(=O)[C@H](Cc2cncnc2)NC(=O)C(C)(C)NC(=O)[C@H](Cc2c[nH]c3ccccc23)NC(=O)[C@H](CCC(=O)O)NC(=O)C(C)(C)NC1=O
B4: SEQ ID NO: 15 (peptide)
peptide: cyclo([Bip(4'-COOH)][4Pal][Phe(4-COOH)]G[Pro(cis-4-F)][Trp(βS-Me,4-F)][Aib]EW[Aib][4Pal]Q[Dab]G[dPro(4R-(4-pyridylmethyl))])
SMILES: C[C@@H](c1c[nH]c2cccc(F)c12)[C@@H]1NC(=O)[C@@H]2C[C@H](F)CN2C(=O)CNC(=O)[C@H](Cc2ccc(C(=O)O)cc2)NC(=O)[C@H](Cc2ccncc2)NC(=O)[C@H](Cc2ccc(-c3ccc(C(=O)O)cc3)cc2)NC(=O)[C@H]2C[C@@H](Cc3ccncc3)CN2C(=O)CNC(=O)[C@H](CCN)NC(=O)[C@H](CCC(N)=O)NC(=O)[C@H](Cc2ccncc2)NC(=O)C(C)(C)NC(=O)[C@H](Cc2c[nH]c3ccccc23)NC(=O)[C@H](CCC(=O)O)NC(=O)C(C)(C)NC1=O
B5: SEQ ID NO: 18 (peptide)
peptide: cyclo([Bip(4'-COOH)][4Pal][Phe(4-COOH)]G[Pro(cis-4-F)][Trp(βS-Me,4-F)][Aib]EW[αMeS][Ala(pyrimidin-5-yl)]Q[Dab]G[dPro(4R-Bzl(4-F))])
SMILES: C[C@@H](c1c[nH]c2cccc(F)c12)[C@@H]1NC(=O)[C@@H]2C[C@H](F)CN2C(=O)CNC(=O)[C@H](Cc2ccc(C(=O)O)cc2)NC(=O)[C@H](Cc2ccncc2)NC(=O)[C@H](Cc2ccc(-c3ccc(C(=O)O)cc3)cc2)NC(=O)[C@H]2C[C@@H](Cc3ccc(F)cc3)CN2C(=O)CNC(=O)[C@H](CCN)NC(=O)[C@H](CCC(N)=O)NC(=O)[C@H](Cc2cncnc2)NC(=O)[C@](C)(CO)NC(=O)[C@H](Cc2c[nH]c3ccccc23)NC(=O)[C@H](CCC(=O)O)NC(=O)C(C)(C)NC1=O
B6: SEQ ID NO: 23 (peptide)
peptide: cyclo([Bip(4'-COOH)][4Pal][Phe(4-COOH)]G[Pro(cis-4-F)][Trp(βS-Me,4-F)][Aib]EW[d(αMeS)][Ala(pyrimidin-5-yl)]Q[Dab]G[dPro(4R-Bzl(4-F))])
SMILES: C[C@@H](c1c[nH]c2cccc(F)c12)[C@@H]1NC(=O)[C@@H]2C[C@H](F)CN2C(=O)CNC(=O)[C@H](Cc2ccc(C(=O)O)cc2)NC(=O)[C@H](Cc2ccncc2)NC(=O)[C@H](Cc2ccc(-c3ccc(C(=O)O)cc3)cc2)NC(=O)[C@H]2C[C@@H](Cc3ccc(F)cc3)CN2C(=O)CNC(=O)[C@H](CCN)NC(=O)[C@H](CCC(N)=O)NC(=O)[C@H](Cc2cncnc2)NC(=O)[C@@](C)(CO)NC(=O)[C@H](Cc2c[nH]c3ccccc23)NC(=O)[C@H](CCC(=O)O)NC(=O)C(C)(C)NC1=O
B7: SEQ ID NO: 2 (peptide)
peptide: cyclo([Bip(4'-COOH)][4Pal][Phe(4-COOH)]G[Pro(cis-4-F)][Trp(βS-Me,4-F)][Aib]EW[Aib][4Pal]Q[Dab]G[dPro(4R-Bzl(4-F))])
SMILES: C[C@@H](c1c[nH]c2cccc(F)c12)[C@@H]1NC(=O)[C@@H]2C[C@H](F)CN2C(=O)CNC(=O)[C@H](Cc2ccc(C(=O)O)cc2)NC(=O)[C@H](Cc2ccncc2)NC(=O)[C@H](Cc2ccc(-c3ccc(C(=O)O)cc3)cc2)NC(=O)[C@H]2C[C@@H](Cc3ccc(F)cc3)CN2C(=O)CNC(=O)[C@H](CCN)NC(=O)[C@H](CCC(N)=O)NC(=O)[C@H](Cc2ccncc2)NC(=O)C(C)(C)NC(=O)[C@H](Cc2c[nH]c3ccccc23)NC(=O)[C@H](CCC(=O)O)NC(=O)C(C)(C)NC1=O
B8: SEQ ID NO: 21 (peptide)
peptide: cyclo([Bip(4'-COOH)][4Pal][Phe(4-COOH)]G[Pro(cis-4-F)][Trp(βS-Me,4-F)][Aib]EW[3Aminoazetidine3carboxyl][Ala(pyrimidin-5-yl)]Q[Dab]G[dPro(4R-Bzl(4-F))])
SMILES: C[C@@H](c1c[nH]c2cccc(F)c12)[C@@H]1NC(=O)[C@@H]2C[C@H](F)CN2C(=O)CNC(=O)[C@H](Cc2ccc(C(=O)O)cc2)NC(=O)[C@H](Cc2ccncc2)NC(=O)[C@H](Cc2ccc(-c3ccc(C(=O)O)cc3)cc2)NC(=O)[C@H]2C[C@@H](Cc3ccc(F)cc3)CN2C(=O)CNC(=O)[C@H](CCN)NC(=O)[C@H](CCC(N)=O)NC(=O)[C@H](Cc2cncnc2)NC(=O)C2(CNC2)NC(=O)[C@H](Cc2c[nH]c3ccccc23)NC(=O)[C@H](CCC(=O)O)NC(=O)C(C)(C)NC1=O
B9: SEQ ID NO: 17 (peptide)
peptide: cyclo([Bip(4'-COOH)][4Pal][Phe(4-COOH)]G[Pro(cis-4-F)][Trp(βS-Me,4-F)][Aib]DW[Aib][Ala(pyrimidin-5-yl)]Q[Dab]G[dPro(4R-Bzl(4-F))])
SMILES: C[C@@H](c1c[nH]c2cccc(F)c12)[C@@H]1NC(=O)[C@@H]2C[C@H](F)CN2C(=O)CNC(=O)[C@H](Cc2ccc(C(=O)O)cc2)NC(=O)[C@H](Cc2ccncc2)NC(=O)[C@H](Cc2ccc(-c3ccc(C(=O)O)cc3)cc2)NC(=O)[C@H]2C[C@@H](Cc3ccc(F)cc3)CN2C(=O)CNC(=O)[C@H](CCN)NC(=O)[C@H](CCC(N)=O)NC(=O)[C@H](Cc2cncnc2)NC(=O)C(C)(C)NC(=O)[C@H](Cc2c[nH]c3ccccc23)NC(=O)[C@H](CC(=O)O)NC(=O)C(C)(C)NC1=O
B10: SEQ ID NO: 25 (peptide)
peptide: cyclo([TyrEtNAc][Ala(1-bicyclo(1.1.1)pentyl)][Phe(4-COOH)]G[Pro(cis-4-F)][Trp(βS-Me,4-F)][Aib]EW[Aib][Ala(pyrimidin-5-yl)]Q[Dab]G[dPro(4R-Bzl(4-F))])
SMILES: CC(=O)NCCOc1ccc(C[C@@H]2NC(=O)[C@H]3C[C@@H](Cc4ccc(F)cc4)CN3C(=O)CNC(=O)[C@H](CCN)NC(=O)[C@H](CCC(N)=O)NC(=O)[C@H](Cc3cncnc3)NC(=O)C(C)(C)NC(=O)[C@H](Cc3c[nH]c4ccccc34)NC(=O)[C@H](CCC(=O)O)NC(=O)C(C)(C)NC(=O)[C@H]([C@@H](C)c3c[nH]c4cccc(F)c34)NC(=O)[C@@H]3C[C@H](F)CN3C(=O)CNC(=O)[C@H](Cc3ccc(C(=O)O)cc3)NC(=O)[C@H](CC34CC(C3)C4)NC2=O)cc1

In the assay the target is Recombinant human IL-1β (BioLegend 579404) (human, UniProt P01584 117-269). Put plainly: cell-based or functional assay.
In the case of cyclo([TyrEtNAc][4Pal][Phe(4-COOH)]G[Pro(cis-4-F)][Trp(βS-Me,4-F)][Aib]SW[Aib][Ala(pyrimidin-5-yl)]Q[Dab]G[dPro(4R-Bzl(4-F))]) [SEQ ID NO: 16], the “MRC5 IC50” value was found to be 0.051 nM.
The figure for B1 is 0.035 nM; for B2 it is 0.021 nM.
The figure for B3 is 0.049 nM; for cyclo([Bip(4'-COOH)][4Pal][Phe(4-COOH)]G[Pro(cis-4-F)][Trp(βS-Me,4-F)][3Aminoazetidine3carboxyl]EW[Aib][Ala(pyrimidin-5-yl)]Q[Dab]G[dPro(4R-Bzl(4-F))]) [SEQ ID NO: 20] it is 0.062 nM; for B4 it is 0.035 nM.
The figure for B5 is 0.027 nM; for B6 it is 0.018 nM; for B7 it is 0.023 nM.
Turning to B8, the “MRC5 IC50” value was determined as 0.04 nM.
On to cyclo([Bip(4'-COOH)][4Pal][Phe(4-COOH)]G[Pro(cis-4-F)][Trp(βS-Me,4-F)][αMeS]EW[Aib][Ala(pyrimidin-5-yl)]Q[Dab]G[dPro(4R-Bzl(4-F))]) [SEQ ID NO: 22], for which the “MRC5 IC50” value amounted to 0.027 nM.
As for B9, the figure is 0.029 nM; as for B10, 0.053 nM.

Values taken from patent US20260242419A1, “A CYCLIC PEPTIDE FOR TRAPPING INTERLEUKIN-1 BETA” (Merck Sharp & Dohme LLC, priority 2023, published 2026).
